Test results taken from the supplement of paper PMC7877785.
± gives the uncertainty stated by the source.

Assay: self-splicing fitness, log relative to wild type (ln ratio); higher = more splicing; Tetrahymena group I intron in knt gene, E. coli kanamycin selection, DiMSum; sequences stand for … in CUCUCU…GGAGGGAAAAGUUAUCAGGCAUGCACCUGGUAGCUAGUCUUUAAACCAAUAGAUUGCAUCGGUUUAAAAGGCAAGACCGUCAAAUUGCGGGAAAGGGGUCAACAGCCGUUCAGUACCAAGUCUCAGGGGAAACUUUGAGAUGGCCUUGCAAAGGGUAUGGUAAUAAGCUGACGGACAUGGUCCUAACCACGCAGCCAAGUCCUAAGUCAACAGAUCUUCUGUUGAUAUGGAUGCAGUUCACAGACUAAAUGUCGGUCGGGGAAGAUGUAUUCUUCUCAUAAGAUAUAGUCGGACCUCUCCUUAAUGGGAGCUAGCGGAUGAAGUGAUGCAACACUGGAGCCGCUGGGAACUAAUUUGUAUGCGAAAGUAUAUUGAUUAGUUUUGGAGUACUCGUGGUCG
How it was run: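 A randomised library covering all eight P1ex-region intron nucleotides was built with the intron in the knt kanamycin-resistance gene on pET-22b(+) and held in E. coli BL21(DE3). Cells were grown overnight at 37°C or 30°C on LB agar, with or without 25 μg/mL kanamycin, plus 100 μg/mL carbenicillin, 50 μM IPTG and 0.2% rhamnose, and pooled colonies were amplicon-sequenced on an Illumina HiSeq 2500. DiMSum fitness is the error-weighted combination of wild-type-normalised replicate fold changes, kanamycin versus none.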

| Sequence | self-splicing fitness (ln) (30 °C) | self-splicing fitness (ln) (37 °C) |
| --- | --- | --- |
| UACGAGCAAUAUUACGUAAA | -3.61 ± 0.29 | -2.84 ± 0.26 |
| CGCGAGCAAUAUUACGUGCG |  | -3.3 ± 0.47 |
| AAUAAGCAAUAUUACGCCAU | -2.76 ± 0.14 | -1.75 ± 0.15 |
| UACUAGCAAUAUUACGGGAA | -1.95 ± 0.13 | -0.547 ± 0.1 |
| GAUUAGCAAUAUUACGUGAU | -3.04 ± 0.11 | -1.07 ± 0.091 |
| CUUGAGCAAUAUUACGACGA | -2.83 ± 0.42 | -2.51 ± 0.45 |
| UUCCAGCAAUAUUACGCGGA | -2.74 ± 0.24 | -3.39 ± 0.33 |
| AGCAAGCAAUAUUACGUGGA | -2.85 ± 0.15 | -1.85 ± 0.12 |
| UGGAAGCAAUAUUACGUGCA | -0.0243 ± 0.057 | -0.187 ± 0.067 |
| GCUAAGCAAUAUUACGUGAA | -0.92 ± 0.059 | -0.304 ± 0.074 |
| UGCAAGCAAUAUUACGGCAA | 0.111 ± 0.12 | -0.447 ± 0.12 |
| GUGAAGCAAUAUUACGUCAU | -3.04 ± 0.2 | -2.68 ± 0.28 |
| CCUGAGCAAUAUUACGGGGA | -3.07 ± 0.15 | -3.37 ± 0.2 |
| CACGAGCAAUAUUACGUUCU | -3.56 ± 0.2 | -2.02 ± 0.26 |
| AGAAAGCAAUAUUACGCUGU | -2.34 ± 0.14 | -1.98 ± 0.16 |
| GAUAAGCAAUAUUACGAUUG | -2.59 ± 0.11 | -1.82 ± 0.18 |
| ACCAAGCAAUAUUACGUGAU | -2.46 ± 0.072 | -0.924 ± 0.074 |
| GCUAAGCAAUAUUACGCUGU |  | -3.18 ± 0.47 |
| UCCUAGCAAUAUUACGCUCC | -3.73 ± 0.33 | -0.747 ± 0.24 |
| ACUAAGCAAUAUUACGAUGG | -0.371 ± 0.1 | -0.661 ± 0.16 |
| CGUUAGCAAUAUUACGGUUG | -0.758 ± 0.11 | 0.388 ± 0.13 |
| AUGAAGCAAUAUUACGGAUU | -1.08 ± 0.078 | -0.689 ± 0.1 |
| CUCAAGCAAUAUUACGCCUG | -4.22 ± 0.31 | -2.52 ± 0.24 |
| AAUGAGCAAUAUUACGGAUC | -2.24 ± 0.3 | -0.974 ± 0.3 |
| UGGUAGCAAUAUUACGUAAG | -1.53 ± 0.11 | -0.776 ± 0.16 |
| AGCCAGCAAUAUUACGACAG | -3.67 ± 0.27 | -2.74 ± 0.27 |

| Sequence | self-splicing fitness (ln) (30 °C) | self-splicing fitness (ln) (37 °C) |
| --- | --- | --- |
| AUCCAGCAAUAUUACGCCUC | -1.53 ± 0.089 | -1.06 ± 0.14 |
| UAAUAGCAAUAUUACGAUGU | -2.78 ± 0.18 | -2.48 ± 0.19 |
| AAAAAGCAAUAUUACGCGUC | -2.31 ± 0.16 | -1.72 ± 0.16 |
| GACCAGCAAUAUUACGUGUA | -0.635 ± 0.06 | 0.255 ± 0.074 |
| ACCUAGCAAUAUUACGGGCU | -1.51 ± 0.076 | -1.35 ± 0.094 |
| GACCAGCAAUAUUACGAAAG | -2.49 ± 0.1 | -2.58 ± 0.18 |
| AGGCAGCAAUAUUACGGGAG | -4.08 ± 0.22 | -1.53 ± 0.12 |
| GAGCAGCAAUAUUACGUAUA | -3.2 ± 0.27 | -2.97 ± 0.27 |
| CUGCAGCAAUAUUACGCAUG | -2.5 ± 0.12 | -1.8 ± 0.14 |
| GAAGAGCAAUAUUACGCAAU | -3.87 ± 0.2 | -1.65 ± 0.13 |
| ACACAGCAAUAUUACGAGCA | -1.44 ± 0.12 | -1.45 ± 0.13 |
| AUUUAGCAAUAUUACGUUUU | -3.37 ± 0.24 | -2.25 ± 0.2 |
| CGUAAGCAAUAUUACGUGAG | -2.17 ± 0.11 | -1.09 ± 0.092 |
| UGUUAGCAAUAUUACGAUGA | -0.408 ± 0.09 | -1.06 ± 0.092 |
| AUUCAGCAAUAUUACGCGAC | -2.38 ± 0.23 | -0.937 ± 0.18 |
| GACCAGCAAUAUUACGCUCU | -0.6 ± 0.061 | 0.0283 ± 0.089 |
| CAGGAGCAAUAUUACGCCGA | -1.75 ± 0.4 |  |
| GUAAAGCAAUAUUACGCCCU | 0.35 ± 0.081 | 0.185 ± 0.081 |
| AUUGAGCAAUAUUACGAGAU | -3.73 ± 0.35 | -1.11 ± 0.26 |
| UCCGAGCAAUAUUACGGGGG | -4.27 ± 0.33 | -2.47 ± 0.22 |
| CAGGAGCAAUAUUACGCGAG | -2.59 ± 0.23 | -1.59 ± 0.16 |
| UCCGAGCAAUAUUACGCUGA | -2.04 ± 0.12 | -1.97 ± 0.14 |
| AUGUAGCAAUAUUACGACAC | -1.31 ± 0.14 | -0.0916 ± 0.2 |
| AUAAAGCAAUAUUACGUGAU | -1.64 ± 0.074 | -0.793 ± 0.11 |
| UAUCAGCAAUAUUACGGCCA | 0.201 ± 0.12 | 0.167 ± 0.11 |
| AGGCAGCAAUAUUACGAUCC | -0.222 ± 0.051 | -0.211 ± 0.061 |

| Sequence | self-splicing fitness (ln) (30 °C) | self-splicing fitness (ln) (37 °C) |
| --- | --- | --- |
| ACCGAGCAAUAUUACGACAA | -2.37 ± 0.22 | -2.4 ± 0.26 |
| CUUUAGCAAUAUUACGUGCU |  | -2.59 ± 0.41 |
| AACCAGCAAUAUUACGUGUG | -1.05 ± 0.033 | -0.463 ± 0.048 |
| UGCAAGCAAUAUUACGAGAC | -4.03 ± 0.46 | -2.05 ± 0.34 |
| CCACAGCAAUAUUACGUUGU | -2.37 ± 0.076 | -2.83 ± 0.13 |
| CUGAAGCAAUAUUACGUCAG | -4.14 ± 0.2 | -1.46 ± 0.14 |
| CGGAAGCAAUAUUACGGUUG | -0.585 ± 0.059 | -0.061 ± 0.085 |
| UUUAAGCAAUAUUACGGGCG | -0.49 ± 0.13 | 0.635 ± 0.21 |
| AGUGAGCAAUAUUACGUGGG | -3.7 ± 0.29 | -2.51 ± 0.23 |
| CGUCAGCAAUAUUACGUCCC | -3.43 ± 0.31 | -0.834 ± 0.22 |
| UGCGAGCAAUAUUACGCCAU |  | -2.45 ± 0.49 |
| GGGUAGCAAUAUUACGGCGU | -0.56 ± 0.13 | -0.386 ± 0.12 |
| ACGCAGCAAUAUUACGAGAA | -1.64 ± 0.26 | -2.83 ± 0.25 |
| AAGGAGCAAUAUUACGGUUA | -2.54 ± 0.34 |  |
| AAUAAGCAAUAUUACGUUAA | -2.76 ± 0.19 | -0.928 ± 0.13 |
| GGUUAGCAAUAUUACGAGCU | -2.61 ± 0.29 | -1.69 ± 0.32 |
| UCCGAGCAAUAUUACGGGUA | -1.06 ± 0.13 | -0.229 ± 0.096 |
| CAGCAGCAAUAUUACGUCCA | -2.61 ± 0.3 | -0.781 ± 0.22 |
| UAAGAGCAAUAUUACGGGAA | -2.21 ± 0.3 | -1.77 ± 0.24 |
| UCUUAGCAAUAUUACGUUUG | -3.07 ± 0.17 | -2.48 ± 0.27 |
| GCUUAGCAAUAUUACGUAAU | -0.0411 ± 0.068 | 0.545 ± 0.083 |
| CCUGAGCAAUAUUACGUAGC | -4.49 ± 0.27 | -1.77 ± 0.16 |
| CUCAAGCAAUAUUACGCACG | -2.51 ± 0.14 | -0.724 ± 0.16 |
| GCAUAGCAAUAUUACGGUUG | -2.82 ± 0.099 | -1.39 ± 0.11 |
| ACAUAGCAAUAUUACGAGCU | -1.32 ± 0.12 | -0.388 ± 0.13 |
